What was measured:
[1] = target: T1, 细胞表面的人FcγRIIB (CD32B) (human, UniProt P31994 43-310); experiment: two-colour FACS on CHO cells with full-length FcγRIIB, after mouse IgG1 isotype control
T1 construct: whole, on cells; also called huFcγRIIB; CHO/IIB
T1 sequence (looked up): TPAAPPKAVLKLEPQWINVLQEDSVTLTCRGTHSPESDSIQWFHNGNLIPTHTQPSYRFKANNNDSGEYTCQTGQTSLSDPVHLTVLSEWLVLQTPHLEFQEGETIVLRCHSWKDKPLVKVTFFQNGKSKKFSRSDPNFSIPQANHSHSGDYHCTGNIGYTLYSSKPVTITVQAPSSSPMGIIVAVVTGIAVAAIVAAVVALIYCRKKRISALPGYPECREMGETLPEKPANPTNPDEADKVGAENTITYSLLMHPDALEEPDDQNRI

[2] = target: T1, 细胞表面的人FcγRIIB (CD32B); experiment: cell-based or functional assay
[3] = target: T1, 细胞表面的人FcγRIIB (CD32B); experiment: two-colour FACS on CHO cells with full-length FcγRIIB
[4] = target: FcγRIIB (ELISA包被, 哺乳动物系统产生) (human) (UniProt P31994); experiment: direct ELISA, receptor-coated plate
[5] = target: T2, THP1单核细胞株上的CD32A (H131形式) (human, UniProt P12318 34-317); experiment: FACS on THP-1 cells
T2 construct: whole, on cells; also called THP-I
T2 sequence (looked up): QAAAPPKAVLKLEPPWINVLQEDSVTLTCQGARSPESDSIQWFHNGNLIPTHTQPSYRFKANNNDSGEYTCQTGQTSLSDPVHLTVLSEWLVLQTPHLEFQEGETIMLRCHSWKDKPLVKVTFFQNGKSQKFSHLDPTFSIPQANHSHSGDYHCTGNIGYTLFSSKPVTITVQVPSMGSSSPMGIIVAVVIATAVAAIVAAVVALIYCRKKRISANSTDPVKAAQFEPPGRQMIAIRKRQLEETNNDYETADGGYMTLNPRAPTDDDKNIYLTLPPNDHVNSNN

[6] = target: T3, 可溶性单体形式的人CD32B (293H细胞中表达的可溶性细胞外结构域) (human, UniProt P31994 43-217); experiment: SPR (BIAcore 3000), captured antibody, soluble monomeric receptor injected
T3 construct: extracellular domain; also called FcγRIIB
T3 sequence (looked up): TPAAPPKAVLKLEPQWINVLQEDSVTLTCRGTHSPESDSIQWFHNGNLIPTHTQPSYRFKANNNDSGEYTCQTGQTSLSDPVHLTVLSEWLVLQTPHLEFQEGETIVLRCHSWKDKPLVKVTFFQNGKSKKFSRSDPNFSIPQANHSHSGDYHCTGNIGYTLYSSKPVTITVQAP

[7] = target: T4, 人外周血白细胞上的huFcγRIIA (human, UniProt P12318 34-317); experiment: FACS on human peripheral blood leukocytes
T4 construct: whole, on cells; also called FcγRIIA同种型
T4 sequence (looked up): T2 sequence (looked up)

[8] = target: T5, 可溶性单体形式的人CD32A-R131 (human, UniProt P12318 34-217); experiment: SPR (BIAcore 3000), antibody captured by goat anti-mouse F(ab′)2, soluble monomeric receptor injected
T5 construct: extracellular domain
T5 sequence (looked up): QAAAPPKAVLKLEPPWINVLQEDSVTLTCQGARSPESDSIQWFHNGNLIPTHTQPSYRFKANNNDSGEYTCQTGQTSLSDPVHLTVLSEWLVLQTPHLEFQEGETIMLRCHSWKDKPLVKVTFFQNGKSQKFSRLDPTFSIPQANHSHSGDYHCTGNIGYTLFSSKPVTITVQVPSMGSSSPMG

聚集的生物素化人IgG (ligand)
percent of cells labelled [1]: 60 %

嵌合的抗CD32B抗体ch2B6 (antibody)
ADCC [2]: > 10 ng/mL

B1: 由克隆2B6产生的小鼠单克隆抗体 (ATCC PTA-4591) (antibody)
heavy: QVQLQQPVTELVRPGASVMLSCKASDYPFTNYWIHWVKQRPGQGLEWIGVIDPSDTYPNYNKKFKGKATLTVVVSSSTAYMQLSSLTSDDSAVYYCARNGDSDYYSGMDYWGQGTSVTVSS
light: DILLTQSPAILSVSPGERVSFSCRTSQSIGTNIHWYQQRTNGFPRLLIKNVSESISGIPSRFSGSGSGTDFILSINSVESEDIADYYCQQSNTWPFTFGGGTKLEIK
notes: The entries may hold only the variable regions; also called 2B6抗体; m2B6
binding result [3]: binds
fold binding against the commercial antibodies AT10, FL18.26 and IV.3 [4]: < 4.5 倍
binding result [5]: no binding
binding result [6]: binds
binding result [7]: no binding
binding result [8]: no binding (tested: 100nM可溶性受体)

— patent CN101001872A (MACROGENICS INC, dated 2007)
